The target in one series is T1, hUXS1 (Homo sapiens, UniProt Q8NBZ7).
T1 sequence (Q8NBZ7 85-402): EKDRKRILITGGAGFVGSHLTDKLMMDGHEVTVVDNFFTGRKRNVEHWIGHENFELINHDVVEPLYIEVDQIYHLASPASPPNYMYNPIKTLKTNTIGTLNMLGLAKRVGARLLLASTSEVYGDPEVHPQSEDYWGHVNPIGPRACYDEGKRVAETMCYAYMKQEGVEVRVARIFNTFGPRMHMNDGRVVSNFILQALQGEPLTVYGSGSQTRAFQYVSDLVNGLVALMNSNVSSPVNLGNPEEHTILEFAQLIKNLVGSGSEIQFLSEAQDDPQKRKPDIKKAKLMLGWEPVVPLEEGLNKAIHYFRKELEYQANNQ
Description: X-ray crystal structure, […] Å. Type of series: binding. The conditions noted are these: SeMet-labelled protein; 5 mM NAD+, 5 mM UDP; coenzyme site.

Substrate in the series “purified protein”: O=C(O)[C@H]1O[C@H](OP(=O)(O)OP(=O)(O)OC[C@H]2O[C@@H](n3ccc(=O)[nH]c3=O)[C@H](O)[C@@H]2O)[C@H](O)[C@@H](O)[C@@H]1O
Description: purified protein. The conditions noted are these: 50 mM Tris/HCl pH 7.5, 25 °C.

`NC(=O)c1ccc[n+]([C@@H]2O[C@H](COP(=O)(O)OP(=O)(O)OC[C@H]3O[C@@H](n4cnc5c(N)ncnc54)[C@H](O)[C@@H]3O)[C@@H](O)[C@H]2O)c1` [NAD^+]: the “X-ray crystal structure, 1.26 Å” value on hUXS1 is “We solved the crystal structure of hUXS1 in complex with NAD^+ and UDP”.

B1: hUXS1 (Homo sapiens) (protein)
chain: EKDRKRILITGGAGFVGSHLTDKLMMDGHEVTVVDNFFTGRKRNVEHWIGHENFELINHDVVEPLYIEVDQIYHLASPASPPNYMYNPIKTLKTNTIGTLNMLGLAKRVGARLLLASTSEVYGDPEVHPQSEDYWGHVNPIGPRACYDEGKRVAETMCYAYMKQEGVEVRVARIFNTFGPRMHMNDGRVVSNFILQALQGEPLTVYGSGSQTRAFQYVSDLVNGLVALMNSNVSSPVNLGNPEEHTILEFAQLIKNLVGSGSEIQFLSEAQDDPQKRKPDIKKAKLMLGWEPVVPLEEGLNKAIHYFRKELEYQANNQ
For the molecule B1, the kcat in “purified protein” (0.5 mM NAD+) is given as 0.2/oxidation^e.

B2: hUXS1 (Homo sapiens; E204A) (protein)
chain: EKDRKRILITGGAGFVGSHLTDKLMMDGHEVTVVDNFFTGRKRNVEHWIGHENFELINHDVVEPLYIEVDQIYHLASPASPPNYMYNPIKTLKTNTIGTLNMLGLAKRVGARLLLASTSAVYGDPEVHPQSEDYWGHVNPIGPRACYDEGKRVAETMCYAYMKQEGVEVRVARIFNTFGPRMHMNDGRVVSNFILQALQGEPLTVYGSGSQTRAFQYVSDLVNGLVALMNSNVSSPVNLGNPEEHTILEFAQLIKNLVGSGSEIQFLSEAQDDPQKRKPDIKKAKLMLGWEPVVPLEEGLNKAIHYFRKELEYQANNQ
Regarding B2, the kcat in “purified protein” (10 mM NAD+) was 1.7 × 10^−3/reduction^e.

The record behind these values is article PMC3438964 (The Journal of Biological Chemistry, 2012).
